Results published in patent publication EP1298214A2, “Plant thioesterases” (Calgene LLC, priority 1990, dated 1991).

Columns and labels:
[1] = biological target: T1, Bay C12-preferring acyl-ACP thioesterase (Umbellularia californica, UniProt Q41635); experiment: Substrate hydrolysis (ACP versus CoA) by peak gradient-eluted fraction of the ACP column; format: biochemical; set-up: The cotyledons from such seeds are dissected from the other seed parts and stored frozen at -70°; This comprises the source tissue for enzyme extraction; from tissue; host or cells: immature seed cotyledons of Umbellularia californica; conditions: cpm of ether-extractable product
T1 sequence (Q41635 84-382): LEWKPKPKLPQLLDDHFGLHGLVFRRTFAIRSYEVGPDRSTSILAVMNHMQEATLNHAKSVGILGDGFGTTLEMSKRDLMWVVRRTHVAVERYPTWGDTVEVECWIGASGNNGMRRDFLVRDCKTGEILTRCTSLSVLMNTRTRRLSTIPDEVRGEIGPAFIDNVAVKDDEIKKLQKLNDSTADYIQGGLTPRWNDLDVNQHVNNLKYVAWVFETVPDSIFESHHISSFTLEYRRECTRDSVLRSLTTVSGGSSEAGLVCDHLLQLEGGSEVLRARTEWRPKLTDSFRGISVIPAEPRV
Experimental: (§1) To assay for C12 thioesterase activity the following mixture is incubated at 30° for 30 min: "buffer" comprising 7mM KH2PO4-KOH pH 8, 20% v/v glycerol, 1mM dithiothreitol (DTT), 0.1% v/v Triton X100; sample to be tested for activity in the same or similar buffer as the "extraction buffer" described in Example 2; and 5µl of ^14C-radiolabeled lauroyl-ACP substrate for a total volume of 100µl and final lauroyl-ACP concentration of 0.5µM. Lauroyl-ACP substrate is prepared according to the method of Rock et al (Methods in Enzymology (1981) 72:397-403), using ACP prepared from Escherichia coli by the method of Rock and Cronan (Methods in Enzymology (1981) 71:341-351). The laurate is radiolabeled in the carboxylate group at a specific radioactivity of 50-60µCi/µmol.
(§2) The reaction is stopped by adding 0.5ml cold (0°) 10% v/v acetic acid. […] After settling for a few minutes the upper ether layer is transferred to 5ml scintillation fluid for determination of radioactivity by liquid scintillation spectrometry. Additional ether extractions may be performed to recover remaining traces of the reaction product for more accurate quantitation of the enzyme activity if desired. The amount of ether-extracted radioactivity is a direct measure of C12-preferring acyl-ACP thioesterase activity, provided the amount of enzyme is not sufficient to hydrolyze more than about 25% of the substrate. […]

[2] = system: Bay seeds extractable C12-preferring acyl-ACP thioesterase and lauroyl-CoA hydrolysis activity; experiment: Extractable hydrolysis activity at two stages of Bay seed development; format: biochemical, Umbellularia californica; conditions: cpm ether-extractable radioactivity
Experimental: as §1
The reaction is stopped by adding 0.5ml cold (0°) 10% v/v acetic acid. The fatty acid product of the hydrolytic enzyme action is extracted away from the unhydrolyzed substrate by adding 1ml diethyl ether and mixing vigorously. After settling for a few minutes the upper ether layer is transferred to 5ml scintillation fluid for determination of radioactivity by liquid scintillation spectrometry. Additional ether extractions may be performed to recover remaining traces of the reaction product for more accurate quantitation of the enzyme activity if desired. The amount of ether-extracted radioactivity is a direct measure of C12-preferring acyl-ACP thioesterase activity, provided the amount of enzyme is not sufficient to hydrolyze more than about 25% of the substrate. With greater activity than this the relationship between radioactivity in the ether layer and the quantity of enzyme becomes markedly nonlinear. The enzyme preparation must then be diluted appropriately to bring the activity into the linear range of the assay.
Further evidence that the C12-preferring acyl-ACP thioesterase is involved in the biosynthesis of laurate groups that predominate in the Bay seeds comes from a comparison of the extractable activity of the enzyme at two different stages of seed development. As shown in the following table, Table 5, very young seeds, which contain only long-chain fatty acids and insignificant amounts of laurate, yield much less C12-preferring ACP thioesterase than older seeds that have accumulated significant amounts of laurate. Thus it appears that significant activity of this enzyme is only present when the seeds are accumulating laurate. Additionally, there appears to be much less difference in lauroyl-CoA hydrolysis activity, consistent with their being different enzymes as discussed above in Example 5.

[3] = system: material which fails to bind the ACP column (Lauroyl-CoA hydrolysis activity); experiment: Substrate hydrolysis (ACP versus CoA) by peak unbound fraction of the ACP column; format: biochemical, Umbellularia californica; conditions: Flow-through (nonbinding) fraction; cpm of ether-extractable product
Experimental: as §1, §2

Substance: lauroyl-ACP [12:0-ACP]
- Activity on Substrate [1]: 2772 cpm
- Hydrolysis / Thioesterase Activity In Assays ([2]; Normal Seeds (2g/cotyledon pair)): 4704 cpm
- Hydrolysis / Thioesterase Activity In Assays ([2]; Young Seeds (0.5g/cotyledon pair)): 376 cpm
- Activity on Substrate [3]: 300 cpm
